# Test results reported in article PMC6520838, “Structural Insights to the Heterotetrameric Interaction between the Vibrio parahaemolyticus PirA^vp and PirB^vp Toxins and Activation of the Cry-Like Pore-Forming Domain” (Toxins, 2019).
# T1: N-terminal tagged His10-PirA^vp (Vibrio parahaemolyticus)
# T1 chain: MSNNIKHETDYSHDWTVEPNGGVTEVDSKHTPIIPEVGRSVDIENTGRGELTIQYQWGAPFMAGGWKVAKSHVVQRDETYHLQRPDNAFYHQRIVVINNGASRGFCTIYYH
# B1: C-terminal tagged His6-PirB^vp (natural protein)
# chain: MTNEYVVTMSSLTEFNPNNARKSYLFDNYEVDPNYAFKAMVSFGLSNIPYAGGFLSTLWNIFWPNTPNEPDIENIWEQLRDRIQDLVDESIIDAINGILDSKIKETRDKIQDINETIENFGYAAAKDDYIGLVTHYLIGLEENFKRELDGDEWLGYAILPLLATTVSLQITYMACGLDYKDEFGFTDSDVHKLTRNIDKLYDDVSSYITELAAWADNDSYNNANQDNVYDEVMGARSWCTVHGFEHMLIWQKIKELKKVDVFVHSNLISYSPAVGFPSGNFNYIATGTEDEIPQPLKPNMFGERRNRIVKIESWNSIEIHYYNRVGRLKLTYENGEVVELGKAHKYDEHYQSIELNGAYIKYVDVIANGPEAIDRIVFHFSDDRTFVVGENSGKPSVRLQLEGHFICGMLADQEGSDKVAAFSVAYELFHPDEFGTEK
# What was measured:
# [1] = molecular target: T1, N-terminal tagged His10-PirA^vp; assay: SDS-PAGE densitometry of the complex collected from gel filtration; complex fractions eluted at 12.5 to 13 mL, serially diluted, SDS-PAGE; bands quantified with Image J against standard curves of PirA^vp and PirB^vp; conditions: both partners purified
# [2] = molecular target: T1, N-terminal tagged His10-PirA^vp; assay: ITC; iTC200; 1100 uM PirB^vp in the syringe injected into 110 uM PirA^vp in the cell, 19 injections of 2 uL, 25 °C; 30 mM Tris pH 8.0, 100 mM NaCl, 5% glycerol, 1 mM DTT; triplicate; conditions: both partners purified
binder,measurement,setting,value
B1,stoichiometry N,[1],1.1 PirA^vp per PirB^vp
same,Kd,[2],7.33 ± 1.2 µM
same,dH,[2],-25.7 ± 1.42 kcal/mol
same,stoichiometry N,[2],0.74 ± 0.01
